Experimental findings from patent US20160274120A1, “METHODS OF DETERMINING WHETHER THE WNT SIGNALING PATHWAY IS UPREGULATED IN A TUMOR” (ICAHN SCHOOL OF MEDICINE AT MOUNT SINAI, priority 2009, published 2016) are described below.

For one series, the system named is human sarcoma cells. Nature of the series: Proliferation of sarcoma cells in vitro (1000 cells/60 mm, 10 days, crystal violet). The class given is cell-based. The conditions noted are these: A2984, HT1080 and HCT116 cells, lentiviral shRNA. How it is done: FIGS. 16A-16F. Downregulation of CDC25A, a novel Wnt target gene, inhibits proliferation of human sarcoma cells in vitro. A. CDC25A is a direct target of Wnt signaling in sarcoma cells. Chromatin immunoprecipitation was conducted on DNA extracted from U-2 OS, a Wnt autocrine sarcoma cell line. Monoclonal antibody against β-catenin was used in immunoprecipitation. Axin 2, a known Wnt target gene, was used as a positive control. […] C. Downregulation of Wnt signaling (assayed by TCF4 reporter activity) in sarcoma cells expressing dnTCF4. Cells stably expressing TOP luciferase and a normalizer, renilla luciferase, were used in this assay. D. dnTCF expression induces growth arrest in sarcoma cells. Indicated human sarcoma cells were stably infected with dnTCF or an empty vector control and selected in puromycin for 3 days. Cells were plated at 1000 cells/60 mm
density and cultured for 10 days. […] E Knockdown of CDC25A or c-myc induces growth arrest in sarcoma cells. HCTZ 16, a human colon cancer cell line was used for comparison. Indicated cells were stably infected with either empty vector control or shRNA specific for CDC25A or c-myc and selected in puromycin and plated at 1000 cells/60 mm plate and cultured for 10 days. Cells were fixed and stained with crystal violet. F. Western blotting to show specific downregulation of CDC25A or c-myc after shRNA expression in indicated cells. […]

The next series has as its system axin2. Nature of the series: Real time PCR quantification of axin2 mRNA expression in NSCLC cells. As to conditions: around 30% of Wnt activated NSCLC lines (summary). The class given is cell-based, human. As to the method: Total RNA was isolated from cells using the Trizol Reagent (Invitrogen) according to the manufacturer's protocol. Semi-quantitative RT-PCR screen was performed using One Step RT-PCR Kit (Invitrogen) according to the manufacturer's protocol. PCR products were separated on 1% agarose gel. 5 μg total RNA was reverse transcribed using Superscript II reverse transcriptase (Invitrogen). Quantitative PCR was performed using SybrGreen 2× master mix (Roche) on a MJ Opticon or Stratagene MxPro3005. 50 ng cDNA were amplified as follows: 94° C. for 15 min, 94° C. for 15 s, 60° C. for 30 s, 72° C. for 1 min. Steps 2 through 4 were repeated for 40 cycles. Each reaction was performed in duplicate, and results of 3 independent experiments were used for statistical analysis. Relative mRNA expression levels were quantified using the ΔΔC(t) method (Pfaffl, 2001). Results were normalized to those for TATA Binding Protein (TBP). Primer sequences can be found in Tables 4 and 5.

The test system of another series is TCF reporter activity. Nature of the series: TCF mediated luciferase reporter activity (TOP/FOP) in NSCLC cell lines. The series is classed as cell-based, human. The conditions noted are these: around 30% of Wnt activated NSCLC lines (summary). How it is done:
24 hours before infection, stable reporter cell lines expressing TOP or FOP TCF luciferase and renilla luciferase were plated in 6 well plates at I×IO^5 cells/well. The following day cells were infected with lentiviruses expressing different Wnt antagonists, selected with 2 μg/ml puromycin for 3 days, lysed and processed for luciferase reporter assay using the dual luciferase reporter Kit (Promega) according to the manufacturer's protocol. Luciferase reporter activity was calculated by dividing the ratio TOP/RL by the FOP/RL ratio. Results were normalized to the results with vector transduced cultures.
(§1) analysis, cells were co-infected with TOP or FOP firefly luciferase mixed with a lentivirus expressing renilla luciferase (RL) used to normalize for infection efficiency (1:20-1:40 ratio). To assess the effects of FRP1 and DKK1 on TCF luciferase reporter activity, stable reporter cell lines were plated in 6 well plates and infected with vector, FRP1 or DKK1 lentiviruses. Cells were selected for 3 days with puromycin, lysed and processed for dual luciferase analysis. To generate stable inducible lines, cells were infected consecutively with tetracycline trans-activator (tTa) expressing lentivirus, selected for two weeks with 5-10 μg/ml blasticidin, followed by a second infection with lentiviruses expressing inducible FRP1, DKK1, DNTCF-4 or DNTCF-4-mOrange or empty vector, and selected for 4-7 days in 2 μg/ml puromycin in the presence of 10 ng/ml doxycycline. For induction of the antagonists, cells were trypsinized, washed with PBS and plated into 10 cm plates in the presence or absence of doxycyclin. Control cells expressing tTa or empty vector were processed in the same way. All infections were performed for 16 hr in the presence of 8 μg/ml polybrene.
A general note: In a reporter assay the amount or activity of a reporter protein is the signal.

The next series deals with uncomplexed β-catenin. Nature of the series: Uncomplexed β-catenin, GST-E-cadherin pull-down and immunoblot in NSCLC cells expressing Wnt antagonists. The series is classed as cell-based, human. The conditions noted are these: for uncomplexed β-catenin level: H1819 NSCLC cells, stable (constitutive) expression. How it is done: FIGS. 2A-2E. Effects of FRP1 and DKK1 inhibition on Wnt/β-catenin signaling and growth of human NSCLC cells. (A) Effects of constitutive expression of FRP1 and DKK1 on uncomplexed β-catenin in H1819 NSCLC cell line. FRP1 and DKK1 expression was determined by immunoblot analysis as described in Materials and methods. (B) Analysis of NSCLC lines for uncomplexed β-catenin using regulatable expression of HA-tagged FRP1 (upper panel) and Flag-tagged DKK1 (lower panel). NSCLC cells expressing Tet regulatable FRP1-HA or DKK1-Flag were generated as described in supplemental Materials and methods. Expression of FRP1-HA or DKK1-Flag was induced by removal of dox from the culture medium. Cells expressing tetracycline Trans-activator (tTa) were used as control. Analysis of uncomplexed β-catenin was performed as described in Materials and methods using 1 mg total cell lysates, except for A427 cells, where 0.1 mg cell lysate was used. FRP1 and DKK1 expression was determined by immunoblot analysis as described in Materials and methods. (C) FRP1 and DKK1 mediated inhibition of TCF luciferase reporter activity in NSCLC cell lines. Luciferase reporter activity was calculated by dividing the TOP/RL ratio by the FOP/RL ratio. Results were normalized to the results with vector transduced cultures. The values represent the mean±SD from two independent experiments. (D) Real time PCR quantification of FRP1 and DKK1 effects on axin2 mRNA expression. H23, Al 146 and H1819 cells were infected with vector (VEC), FRP1-HA or DKK1-Flag lentiviruses. qRT-PCR was performed as described in supplemental Materials and methods. Relative mRNA expression levels were quantified using the ΔΔC(t) method (Pfaffl, 2001). (E) Effects of DKK1 on cell growth. A549, H23, H1819 and A427 cells were infected with lentiviruses expressing vector (VEC) or DKK1-Flag and 2×10^4 cells were plated into 60 mm tissue culture dishes. Cultures were visualized using crystal violet staining 2-3 weeks after plating. Expression of flagged tagged DKK1 was assessed by immunoblot analysis as described in Materials and methods.
GST-E-cadherin binding and immunoblot analysis was performed as previously described (Bafico et al, 1998), with the exception that for human tumor samples it was done with freshly frozen or stored tissue under cold, mild-detergent conditions. Specifically, the following protocol to assay for uncomplexed (active) β-catenin in human tumor samples was used:
as §1
For orientation: In western blotting, separated proteins are transferred to a membrane and probed.

The subject of a further series is NSCLC cells. Nature of the series: Cell growth analysis assay (crystal violet staining) of NSCLC cells. The conditions noted are these: stable DKK1 expression. The series is classed as cell-based, human. An excerpt: Transduced and marker selected cells were trypsinized, counted and 1-2×10^4 cells plated into 60 mm tissue culture dishes. At 2-3 weeks, cells were washed with PBS, fixed in 10% methanol/acetic acid solution and stained with 1% crystal violet.

The test system of series [1] is autocrine Wnt NSCLC cells. In words: Sensitization of NSCLC cells to cisplatin (colony growth, annexin/PI FACS). The series is classed as cell-based, human. The conditions noted are these: H23 (autocrine Wnt) vs A549 cells, lentiviral DKK1, cisplatin. How it is done: FIGS. 13A and 13E. […] (A and B) Effects of cisplatin on growth of H23 (A) and A549 (B) cells infected with vector (VEC) or DKK1 expressing lentiviruses. 5×10^3 H23 and A549 cells expressing vector or DKK1 were plated in 60 mm plates. Cells were treated for 4 hr with 5 or 20 μM cisplatin or saline as control and colonies were visualized 2 weeks later by crystal violet staining. (C and D) Effects of cisplatin on apoptosis of H23 (C) and A549 (D) cells infected with vector (VEC) or DKK1 expressing lentiviruses and treated for 3 days with increasing concentrations of cisplatin. Adherent and floating cells were collected and processed for FACS analysis using annexin/PI. The percentage of annexin positive cells in vector or DKK1 infected cells is represented in the line graph. Results are the mean±SD of 3 independent experiments. Statistical two-way analysis of variance (ANOVA) tests with Bonferroni multiple testing corrections were performed. *−p<0.05, **−p<0.01, ***−p<0.001. […] Cell lysates were collected every 24 hr and analyzed by immunoblot. […]
For DNA content analysis, cells were trypsinized, combined with floating cells, washed with PBS, stained with propidium iodide (PI), using the CycleTEST Plus DNA reagent kit (Becton Dickinson) following the manufacturer instructions, and subjected to FACS analysis. […] Results were analyzed using Cell Quest 3.2 software (Becton Dickinson).

[2] abbreviates: H23 and A1146 tumor lines, inducible system, low expression in the presence of dox.
Setting [3] is: around 30% of Wnt activated NSCLC lines (summary).

On to “CDC25A shRNA: shRNA specific for CDC25A, 5′CCAGGGAATTTCATTCCTC3′ (SEQ ID NO: 62) (CCAGGGAAATTTCATTCCTC; chemistry not fully specified)”, for which the proliferation result in the series with human sarcoma cells was “inhibited proliferation to varying degrees”.

B1: FRP1: secreted Frizzled Related Protein, Wnt antagonist inhibiting Wnt ligand-receptor interaction; HA-tagged, expressed from lentiviral vector (protein, UniProt Q8N474 32-314, looked up)
Secreted frizzled-related …: SEYDYVSFQSDIGPYQSGRFYTKPPQCVDIPADLRLCHNVGYKKMVLPNLLEHETMAEVKQQASSWVPLLNKNCHAGTQVFLCSLFAPVCLDRPIYPCRWLCEAVRDSCEPVMQFFGFYWPEMLKCDKFPEGDVCIAMTPPNATEASKPQGTTVCPPCDNELKSEAIIEHLCASEFALRMKIKEVKKENGDKKIVPKKKKPLKLGPIKKKDLKKLVLYLKNGADCPCHQLDNLSHHFLIMGRKVKSQYLLTAIHKWDKKNKEFKNFMKKMKNHECPTFQSVFK
modifications: HA tag
notes: HA-tagged, expressed from lentiviral vector
Turning to B1, the “expression of the Wnt target gene axin2” value in the series with axin2 was “dramatic decrease”. Also, the TCF reporter activity entry with TCF reporter activity is given as “dramatic decrease”. Also, the “uncomplexed β-catenin levels” value in the series with uncomplexed β-catenin (setting [2]) is given as “significant reduction”; with uncomplexed β-catenin (H2347, H358 or A427 cells), “no effect”; with uncomplexed β-catenin (setting [3]), “dramatic decrease”. Further, in the series on uncomplexed β-catenin, the “uncomplexed β-catenin level” value is “marked decrease”.

B2: DKK1: Dickkopf-1, secreted Wnt antagonist binding co-receptor LRP6; Flag-tagged, expressed from lentiviral vector (protein, UniProt O94907 32-266, looked up)
Dickkopf-related protein 1: TLNSVLNSNAIKNLPPPLGGAAGHPGSAVSAAPGILYPGGNKYQTIDNYQPYPCAEDEECGTDEYCASPTRGGDAGVQICLACRKRRKRCMRHAMCCPGNYCKNGICVSSDQNHFRGEIEETITESFGNDHSTLDGYSRRTTLSSKMYHTKGQEGSVCLRSSDCASGLCCARHFWSKICKPVLKEGQVCTKHRRKGSHGLEIFQRCYCGEGLSCRIQKDHHQASNSSRLHTCQRH
modifications: Flag tag
notes: Flag-tagged, expressed from lentiviral vector
As for B2, in the series with axin2, the “expression of the Wnt target gene axin2” value was “dramatic decrease”. Moreover, the TCF reporter activity entry in the series with TCF reporter activity is reported as “dramatic decrease”. Besides, the “uncomplexed β-catenin levels” value is given as “further reduced” in the series with uncomplexed β-catenin (H23 and A1146 cells, full induction (dox removed)); “decrease” with uncomplexed β-catenin (setting [2]); “no effect” in the series with uncomplexed β-catenin (H2347, H358 or A427 cells); “dramatic decrease” in the series with uncomplexed β-catenin (setting [3]). Besides, the “uncomplexed β-catenin level” value in the series with uncomplexed β-catenin was “marked decrease”. The “cell growth / proliferation vs vector control” value in the series with NSCLC cells (A549 (no Wnt activation) and A427 (β-catenin mutant) cells) was “not associated with any detectable growth inhibition”; in the series on NSCLC cells (H23 and H1819 tumor cells), “antiproliferative effects”. The “sensitization to cisplatin treatment” value in series [1] is “specifically sensitizes”.
